{
  "source": "paper PMC6817665",
  "about": "(iScience, 2019)",
  "binders": {"B1": {"name": "Strep-tag II CEP55 ZF (StrepII-tag version of CEP55 ZF peptide, residues 435–464) (peptide)", "chain": "ESLVECPKCNIQYPATEHRDLLVHVEYCSK"}, "B2": {"name": "StrepII-tag version of CEP55 ZF mutant E460A (peptide)", "chain": "B1 chain with E26A"}, "B3": {"name": "CEP55 His-NOA (His-tag version of the human CEP55 NOA fragment, residues 304–396) (domain or fragment)", "chain": "IQKLREENDIARGKLEEEKKRSEELLSQVQFLYTSLLKQQEEQTRVALLEQQMQACTLDFENEKLDRQHVQHQLHVILKELRKARNQITQLES"}},
  "key": {"M1 (linear) GST-Ub2": {"biological_target": "M1 (linear) GST-Ub2 (UniProt P0CG48)", "assay": "BLI"}, "SEC-MALS": {"biological_target": "the molecule itself", "assay": "SEC-MALS"}},
  "note": "Substitutions are numbered along the chain they refer to. Names may count otherwise. “And” between values parts separate entries of the source, which are not always exact repeats. Identical values can stand only once.",
  "data": [
    {"binder": "B1", "values": [
      {"measurement": "Kd", "setting": "M1 (linear) GST-Ub2", "result": 1600, "unit": "nM"}
    ]},
    {"binder": "B2", "values": [
      {"measurement": "fold reduction of binding affinity against WT", "setting": "M1 (linear) GST-Ub2", "result": 26, "unit": "fold"}
    ]},
    {"binder": "B3", "values": [
      {"measurement": "fold weaker dimerization affinity than NEMO NOA", "setting": "SEC-MALS", "result": 6, "unit": "fold"},
      {"measurement": "stoichiometry N", "setting": "SEC-MALS", "result": "2 and 6"}
    ]}
  ]
}
